# Assay results published in patent US20250136682A1 (ACADEMIA SINICA, published 2025).
# Numbering of substitutions follows the chain as printed.
# T1: mouse Siglec-3 expressed in HEK-293T cells (mouse, UniProt Q63994 17-403)
# T1 construct: whole, on cells
# T1 sequence (looked up): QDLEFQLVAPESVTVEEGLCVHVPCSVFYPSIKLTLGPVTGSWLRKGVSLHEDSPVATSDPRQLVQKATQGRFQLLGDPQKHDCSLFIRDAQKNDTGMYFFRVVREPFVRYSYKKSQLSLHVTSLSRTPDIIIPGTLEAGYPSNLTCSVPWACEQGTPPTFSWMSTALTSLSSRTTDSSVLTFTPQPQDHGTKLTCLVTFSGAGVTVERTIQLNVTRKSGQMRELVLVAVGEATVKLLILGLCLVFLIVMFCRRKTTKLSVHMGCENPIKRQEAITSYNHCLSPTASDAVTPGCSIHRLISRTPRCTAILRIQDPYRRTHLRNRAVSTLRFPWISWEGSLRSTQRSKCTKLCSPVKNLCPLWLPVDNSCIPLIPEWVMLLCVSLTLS
# B1: 1H3-3A (antibody, human IgG1, kappa)
# light chain: DGTDIQMTQSPSSLSASVGDRVTITCRASQDVYGYVAWYQQKPGKAPKLLISYTPGLYSGVPSRFSGSGSGTDFTLTISSLQPEDFATYYCQQYYDFPITFGQGTKVEIKRTVAAPSVFIFPPSDEQLKSGTASVVCLLNNFYPREAKVQWKVDNALQSGNSQESVTEQDSKDSTYSLSSTLTLSKADYEKHKVYACEVTHQGLSSPVTKSFNRGEC
# heavy chain: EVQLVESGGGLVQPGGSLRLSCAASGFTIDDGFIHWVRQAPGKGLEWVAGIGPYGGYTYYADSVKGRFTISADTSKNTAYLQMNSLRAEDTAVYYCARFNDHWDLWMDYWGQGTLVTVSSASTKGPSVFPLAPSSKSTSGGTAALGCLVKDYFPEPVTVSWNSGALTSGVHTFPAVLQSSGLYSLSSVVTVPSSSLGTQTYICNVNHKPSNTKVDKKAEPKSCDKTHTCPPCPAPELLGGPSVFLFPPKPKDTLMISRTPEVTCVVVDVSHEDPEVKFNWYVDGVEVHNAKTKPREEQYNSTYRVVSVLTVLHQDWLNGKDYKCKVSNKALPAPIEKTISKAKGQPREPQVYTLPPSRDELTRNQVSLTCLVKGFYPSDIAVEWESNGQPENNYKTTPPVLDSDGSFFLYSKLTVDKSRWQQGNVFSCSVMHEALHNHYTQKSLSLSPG
# B2: anti-Siglec-3 antibody 10C8 (antibody, V domains shown)
# VH: EVQLVESGGGLVQPGGSLRLSCAASGFTINNGWIHWVRQAPGKGLEWVAGIGPYGGSTFYADSVKGRFTISADTSKNTAYLQMNSLRAEDTAVYYCSRFIGSYSHMDYWGQGTLVTVSS
# VL: DIQMTQSPSSLSASVGDRVTITCRASQDVYYYVAWYQQKPGKAPKLLISSAGGLYSGVPSRFSGSGSGTDFTLTISSLQPEDFATYYCQQYFNFPLTFGQGTKVEIKR
# B3: anti-Siglec-3 antibody 4H3-3A (scFv clone H3-3A reformatted into hIgG4) (antibody)
# heavy: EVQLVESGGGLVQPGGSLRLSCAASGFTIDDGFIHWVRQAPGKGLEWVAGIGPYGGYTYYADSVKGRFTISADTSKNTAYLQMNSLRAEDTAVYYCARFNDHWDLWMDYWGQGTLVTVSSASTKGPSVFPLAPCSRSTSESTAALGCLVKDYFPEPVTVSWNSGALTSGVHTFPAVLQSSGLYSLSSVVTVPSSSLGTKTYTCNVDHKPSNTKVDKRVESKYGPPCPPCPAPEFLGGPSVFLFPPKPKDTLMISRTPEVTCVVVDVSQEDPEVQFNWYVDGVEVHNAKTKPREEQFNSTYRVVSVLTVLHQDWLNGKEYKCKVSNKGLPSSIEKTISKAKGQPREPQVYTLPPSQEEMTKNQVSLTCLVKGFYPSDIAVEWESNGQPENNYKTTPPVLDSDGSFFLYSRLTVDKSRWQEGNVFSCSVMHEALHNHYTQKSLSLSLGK
# light: B1 light chain
# notes: Human IgG4 format
# B4: anti-Siglec-3 antibody S3H1-85 reformatted into human IgG1 or IgG4 (antibody, V domains shown)
# VH: VQLVESGGGLVQPGGSLRLSCAASGFTIGSGWIHWVRQAPGKGLEWVAGIGPYGGYTYYADSVKGRFTISADTSKNTAYLQMNSLRAEDTAVYYCARFNDHWDLWMDYWGQGTLVTVSS
# VL: B2 VL with Y31G, S50Y, A51T, G52P, F92Y, N93D, L96I
# notes: also called 1S3H1-85; 4S3H1-85
# B5: anti-Siglec-3 antibody H3-7G reformatted into human IgG1 or IgG4 (antibody, V domains shown)
# VH: B4 VH with G29D, S30D, W32F, N99R, H101D, W102K, D103P, L104Q, W105M
# VL: B2 VL with Y31G, S50Y, A51T, G52P, F92Y, N93D, L96I
# notes: also called 1H3-7G; 4H3-7G
# B6: anti-Siglec-3 antibody H3-8F reformatted into human IgG1 or IgG4 (antibody, V domains shown)
# VH: B4 VH with G29D, S30D, W32F, N99R, H101T, W102Q, D103S, L104Q, W105T
# VL: B2 VL with Y31G, S50Y, A51T, G52P, F92Y, N93D, L96I
# notes: also called 1H3-8F; 4H3-8F
# B7: anti-Siglec-3 antibody H3-9E reformatted into human IgG1 or IgG4 (antibody, V domains shown)
# VH: B4 VH with G29D, S30D, W32F, N99G, D100H, H101P, W102P, D103Y, L104D, W105Y
# VL: B2 VL with Y31G, S50Y, A51T, G52P, F92Y, N93D, L96I
# notes: also called 1H3-9E; 4H3-9E
# B8: anti-Siglec-3 antibody H3-10E reformatted into human IgG1 or IgG4 (antibody, V domains shown)
# VH: B4 VH with G29D, S30D, W32F, N99Q, D100N, H101S, W102P, D103T, L104K, W105T
# VL: B2 VL with Y31G, S50Y, A51T, G52P, F92Y, N93D, L96I
# notes: also called 1H3-10E; 4H3-10E
# B9: anti-Siglec-3 antibody H3-10F reformatted into human IgG1 or IgG4 (antibody, V domains shown)
# VH: B4 VH with G29D, S30D, W32F, N99A, D100T, W102D, D103Q, L104P, W105L
# VL: B2 VL with Y31G, S50Y, A51T, G52P, F92Y, N93D, L96I
# notes: also called 1H3-10F; 4H3-10F
# B10: anti-Siglec-3 antibody S3H1-29 reformatted into human IgG1 or IgG4 (antibody, V domains shown)
# VH: B4 VH with G29H, S30G, G31S, W102Q
# VL: B2 VL with Y31G, S50Y, A51T, G52P, F92Y, N93D, L96I
# notes: also called 1S3H1-29; 4S3H1-29
# B11: anti-Siglec-3 antibody S3H1-74 reformatted into human IgG1 or IgG4 (antibody, V domains shown)
# VH: B4 VH with G29H, S30G, G31S
# VL: B2 VL with Y31G, S50Y, A51T, G52P, F92Y, N93D, L96I
# notes: also called 1S3H1-74; 4S3H1-74
# B12: anti-Siglec-3 antibody S3H1-76 reformatted into human IgG1 or IgG4 (antibody, V domains shown)
# VH: B4 VH with G29S, G31S, W32Y
# VL: B2 VL with Y31G, S50Y, A51T, G52P, F92Y, N93D, L96I
# notes: also called 1S3H1-76; 4S3H1-76
# B13: anti-Siglec-3 antibody S3H2-8 reformatted into human IgG1 or IgG4 (antibody, V domains shown)
# VH: B4 VH with G29D, S30D, W32F, G49A, G51K, Y53R, G54Q, Y56D, Y58S
# VL: B2 VL with Y31G, S50Y, A51T, G52P, F92Y, N93D, L96I
# notes: also called 1S3H2-8; 4S3H2-8
# B14: anti-Siglec-3 antibody S3H2-10 reformatted into human IgG1 or IgG4 (antibody, V domains shown)
# VH: B4 VH with G29D, S30D, W32F, G49A, G51P, Y53L, G54Q, Y56K
# VL: B2 VL with Y31G, S50Y, A51T, G52P, F92Y, N93D, L96I
# notes: also called 1S3H2-10; 4S3H2-10
# B15: anti-Siglec-3 antibody S3H2-12 reformatted into human IgG1 or IgG4 (antibody, V domains shown)
# VH: B4 VH with G29D, S30D, W32F, G49T, G51S, Y53N, G54T, Y56H, Y58N
# VL: B2 VL with Y31G, S50Y, A51T, G52P, F92Y, N93D, L96I
# notes: also called 1S3H2-12; 4S3H2-12
# B16: anti-Siglec-3 antibody S3PL3-46 reformatted into human IgG1 or IgG4 (antibody, V domains shown)
# VH: B4 VH with G29D, S30D, W32F
# VL: B2 VL with Y31G, S50Y, A51T, G52P, F92S, N93R, F94M, L96I
# notes: also called 1S3PL3-46; 4S3PL3-46
# Tests used:
# [1] = target: T2, human Siglec-3 (CD33) on cells (human, UniProt P20138 18-364); experiment: flow cytometry, APC-conjugated antibody titrated on human monocyte-derived dendritic cells (endogenous Siglec-3)
# T2 construct: whole, on cells; also called human endogenous or exogenous Siglec-3
# T2 sequence (P20138 18-364): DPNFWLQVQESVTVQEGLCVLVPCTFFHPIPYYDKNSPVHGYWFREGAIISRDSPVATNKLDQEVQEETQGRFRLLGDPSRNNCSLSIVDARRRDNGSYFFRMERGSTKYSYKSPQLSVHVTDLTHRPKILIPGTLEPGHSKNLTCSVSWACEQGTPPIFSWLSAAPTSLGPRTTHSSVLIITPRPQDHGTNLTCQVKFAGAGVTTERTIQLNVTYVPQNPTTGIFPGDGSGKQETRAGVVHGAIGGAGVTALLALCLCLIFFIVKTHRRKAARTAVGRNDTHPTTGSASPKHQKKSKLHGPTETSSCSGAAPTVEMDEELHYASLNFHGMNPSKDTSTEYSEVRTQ
# Method: (§1) For establishment of titration curves, human monocytes and moDCs (3×10⁴) were incubated with the indicated concentrations of the APC-conjugated anti-Siglec-3 antibodies 4H3-3A, 10C8, as well as hIgG1 control, and analyzed by a flow cytometry instrument (FACSVerse; BD Biosciences). Mean fluorescence intensity (MFI) was analyzed by a software FlowJo (TreeStar, Inc.).
# [2] = target: T2, human Siglec-3 (CD33) on cells; experiment: flow cytometry, APC-conjugated antibody titrated on human monocytes (endogenous Siglec-3)
# Method: as §1
# [3] = target: T1, mouse Siglec-3 expressed in HEK-293T …; experiment: flow cytometry, antibody titrated on HEK-293T cells expressing exogenous mouse Siglec-3
# [4] = target: T3, human CD33.Fc (recombinant extracellular domain of human Siglec-3 fused with Fc portion of hIgG1) (human, UniProt P20138 18-259); experiment: SPR (BIAcore 2000), human CD33.Fc immobilized on CM5 chip
# T3 construct: extracellular domain; also called Siglec-3.Fc; not shown: Fc portion of human IgG1
# T3 sequence (P20138 18-259): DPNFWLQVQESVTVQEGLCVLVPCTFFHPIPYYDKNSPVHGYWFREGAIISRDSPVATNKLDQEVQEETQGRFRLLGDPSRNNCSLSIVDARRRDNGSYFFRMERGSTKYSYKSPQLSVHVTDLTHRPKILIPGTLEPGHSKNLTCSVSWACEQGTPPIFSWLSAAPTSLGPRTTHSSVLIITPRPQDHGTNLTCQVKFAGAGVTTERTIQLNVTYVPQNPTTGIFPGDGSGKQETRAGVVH
# Method: Human IgG1 was first mobilized on channel one of a CM5 chip as the blank to determine the bulk effect of injection itself, whereas human CD33.Fc were immobilized on channel two for analysis of its kinetic interaction with wild various clones of anti-CD33 mAbs, respectively. The interaction between […] and anti-CD33 mAbs was determined by surface plasmon resonance using a Biacore instrument (BIAcore 2000).
# [5] = target: T2, human Siglec-3 (CD33) on cells; experiment: flow cytometry on moDCs (data not shown)
Binder,binding result [5],further results
B1,,EC50 (read off the curve) [1]: ~30 nM; EC50 (read off the curve) [2]: ~100 nM
B2,,EC50 (read off the curve) [2]: ~200 nM
B3,,binding result [3]: no binding; Kd [4]: 8.88 nM; koff [4]: 0.0373 s⁻¹; kon [4]: 4.21e+06 M⁻¹ s⁻¹
B4,binds,
B5,binds,
B6,binds,
B7,binds,
B8,binds,
B9,binds,
B10,binds,
B11,binds,
B12,binds,
B13,binds,
B14,binds,
B15,binds,
B16,binds,
